Series [1] addresses T1, ZmHSF20 (Zea mays, UniProt K7U5Y9 1-318). The series can be described thus: EMSA; unlabeled probe competes; EMSA/Gel-Shift buffer (Beyotime GS009 kit), 4 °C, 1 h; salt and pH not stated. The settings on record: protein: recombinant; tags: His (pET28a); chain copies: 3; label: biotin; blunt.
In series [2] the target is T1, ZmHSF20. The series can be described thus: EMSA; EMSA/Gel-Shift buffer (Beyotime GS009 kit), 4 °C, 1 h; salt and pH not stated. The conditions noted are these: protein: recombinant; tags: His (pET28a); chain copies: 3; label: biotin; 5' overhang 1 nt on strand 1 as printed (reverse strand lacks the final C). In general terms: Mobility shift assays separate free from complexed probe on a gel.

T1 sequence (K7U5Y9 entry or part of it): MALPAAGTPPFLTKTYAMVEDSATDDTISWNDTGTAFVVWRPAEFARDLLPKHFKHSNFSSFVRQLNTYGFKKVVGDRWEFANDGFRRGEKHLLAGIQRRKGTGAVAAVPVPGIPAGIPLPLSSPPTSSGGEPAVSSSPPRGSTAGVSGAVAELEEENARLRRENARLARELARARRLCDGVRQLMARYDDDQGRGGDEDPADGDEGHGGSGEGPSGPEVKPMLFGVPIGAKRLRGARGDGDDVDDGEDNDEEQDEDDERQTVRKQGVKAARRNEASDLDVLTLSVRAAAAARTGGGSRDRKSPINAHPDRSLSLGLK

B1: ZmCesA2-P2 probe (dsDNA)
DNA 1: ATTTACTACTGAAATTTATAAGGATTTGCA
DNA 2: TGCAAATCCTTATAAATTTCAGTAGTAAAT
For the molecule B1, in the series with ZmHSF20 [1], the binding result is given as “binds”.

B2: ZmHSF4-P1 probe (dsDNA)
DNA 1: GCCTTCCAGAACCTTCCTTTCCCGAAATAG
DNA 2: CTATTTCGGGAAAGGAAGGTTCTGGAAGG
Turning to B2, in the series with ZmHSF20 [2], the binding result was “binds”.

The values above are taken from article PMC11218781, “The heat shock factor 20-HSF4-cellulose synthase A2 module regulates heat stress tolerance in maize”.
